{"source": "IntAct's records for PubMed 22918830", "parents": {"B1": {"name": "Histone deacetylase 3 (Homo sapiens), O15379 (parent)", "chain": "MAKTVAYFYDPDVGNFHYGAGHPMKPHRLALTHSLVLHYGLYKKMIVFKPYQASQHDMCRFHSEDYIDFLQRVSPTNMQGFTKSLNAFNVGDDCPVFPGLFEFCSRYTGASLQGATQLNNKICDIAINWAGGLHHAKKFEASGFCYVNDIVIGILELLKYHPRVLYIDIDIHHGDGVQEAFYLTDRVMTVSFHKYGNYFFPGTGDMYEVGAESGRYYCLNVPLRDGIDDQSYKHLFQPVINQVVDFYQPTCIVLQCGADSLGCDRLGCFNLSIRGHGECVEYVKSFNIPLLVLGGGGYTVRNVARCWTYETSLLVEEAISEELPYSEYFEYFAPDFTLHPDVSTRIENQNSRQYLDQIRQTIFENLKMLNHAPSVQIHDVPADLLTYDRTDEADAEERGPEENYSRPEAPNEFYDGDHDNDKESDVEI"}}, "data": [{"variants_of": "B1", "details": "with hdac1_human HDAC1, Q13547", "values": [{"variant": "MAKTVAYFYDPDVGNFHYGAGHPMKPHRLALTHSLVLHYGLYKKMIVFKPYQASQHDMCRFHSEDYIDFLQRVSPTNMQGFTKSLNAFNVGDDCPVFPGLFEFCSRYTGASLQGATQLNNKICDIAINWAGGLQHAKKFEASGFCYVNDIVIGILELLKYHPRVLYIDIDIHHGDGVQEAFYLTDRVMTVSFHKYGNYFFPGTGDMYEVGAESGRYYCLNVPLRDGIDDQSYKHLFQPVINQVVDFYQPTCIVLQCGADSLGCDRLGCFNLSIRGHGECVEYVKSFNIPLLVLGGGGYTVRNVARCWTYETSLLVEEAISEELPYSEYFEYFAPDFTLHPDVSTRIENQNSRQYLDQIRQTIFENLKMLNHAPSVQIHDVPADLLTYDRTDEADAEERGPEENYSRPEAPNEFYDGDHDNDKESDVEI", "note": "[H134Q]", "effect of a mutation on the interaction": "with no effect"}]}]}
